The values below come from the domain aggregation screens of Martell et al. (2025).

This data set is described as follows: soluble fraction after stress (log2 fold change); higher = more stays soluble; pooled small domains, quantitative proteomics. As to conditions: stress: 75 degC.
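Also: 20 min heating vs room temperature control held 20 min.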

Consider “HMFTKYSPDFKLSVILDMRKNNLGYGEVVRKYWNLDSYKESDRHRSQVRLWERIFLEEGVEGFM”, for which the “soluble fraction (log2)” value was -4.63. As for “HMFTLDDLQATYDIFERAEQNSDAMLAFQKVITAEGLDFDLTSPQGIVDFFKGAAPTEIYDLYEAS”, the “soluble fraction (log2)” value is -0.547.

As for “HMFTNSTSSRQLTNSDDTLRLNISSQTRQMLPNGQPFGGSLSGKLLLVIYGATTRSIPAQTTPEKIVV”, the “soluble fraction (log2)” value is -0.198. The figure for “HMFTSVDVAPDLRTAKVFYSVLGRKKSDKEINIAINQKRKAFKKFMGPELHLKNIPDLHFYYD” is -0.369. For “HMFTYDLSERELTIIELVAKGLNNKELADTLFLSEGTIRNYLSTLLNKLDLRDRTQLAIFYYQHL” the value was -2.16. The figure for “HMFVEEGSLKKITFDTYEFNITDNLKSLRVTYQGLLPNLFREGQGVVIEGILLEQNYIQANTVF” is 0.249; for “HMFVTGTTIKKLREEKRMTQGELAQMIGVSDKAVSKWETGRGLPDISLLEPLSRALGISVAELFAGQH” it is -0.612; for “HMFWEGYLAARREQFLKDQQVLLGNEFRSNPDFWLEVASKEWAVVEERLSTGADVSEEVQETMGLDF” it is -2.13. As for “HMFYNSSDNAYKILEINKSATVDEIKAAYRKMAKKYHPDKVIHLGQEHQKGAEEKFRQVQEAYEELQKERG”, the “soluble fraction (log2)” value came to 0.19. The figure for “HMGAAVEVISLRYRSAAELLPIVRSLLSTEGKISADERTNSLIIVDSDEAVARVIHSLATLDT” is -1.3. Turning to “HMGADGIPGKNGENGETSYVHFAYATSADGKTGFSTTDTVGKTYMGQYADFEKADSEDPTKYRWGKFQGP”, the “soluble fraction (log2)” value is 0.0581. For “HMGAFAIHTASELSAGMRIRHERFGPGVITGIDTANPASGARIQVDFDNGTSKTLLLSYAKFQI” the value was -2.53; for “HMGAGKVVDGVTYDFVFDVDVADGQPPLRLPYNRGEDVYQAAERFILRNELPATYREQIVNFIVQNTPG”, -0.116. The figure for “HMGAISGEQREFYTVFRGHLNSHVGEFKVEDIENLLMKAKTEVPDLLEEEFLKMGEAILNRYRN” is 0.0818. For the sequence “HMGAKEHLAGETLRMAVELLSEKQGIPAEQALIRFISSPVYDALYDLDTGMWTQGPTRLLEAFEALE”, the “soluble fraction (log2)” value was -2.01. The figure for “HMGALARLLASVEQELGVTRDRMTRTQKQEAVTLLNEWGAFTLRKSVEDVAEALGVSRFTVYNYLERAEA” is -2.99. The figure for “HMGALSLDMLFDRFDALQEQSMGDKTEGGQELRGMIRTFIEQEKLDIRVTRTTTNAALLEMIEKEMQG” is -0.717.

As to “HMGASALTEREREVLRLLEGGGSDKRIARQLAISEHGVRYHLKSIYKKLGVHDRVSAIAAGRRLAS”, the “soluble fraction (log2)” value was -1.37.

For the sequence “HMGASTQLVEIKNAYENGEWQNVIDLAGKLHEKYNGSEEDKEAQEMAKNSQSKLDEAAAAKAAEEA”, the “soluble fraction (log2)” value was found to be 0.0816.

Take “HMGASYSQFLDQVDSGNVQKVAFGGDMRGGTSQLTYTTRGGQSSTITAPFDRDLINVLRTKNVEIVQEEP”: the “soluble fraction (log2)” value is 0.236. For “HMGATFITSSKDNAINIRQAAGTDSKVIETIKNGHILESSEKSGEWYKVTYYDSDIKKTFTGYIHNSQLK” the value was 0.376; for “HMGAVQFAEQKIHIGSRWIGKKISEFSAESDAFVILIKRGSEVVIPRGPTDIVENDVLVIHVPD”, -3.05. For “HMGAVVSPMPGVILDIKVKEGDSVSEGQTVIILEAMKMENEIVSEFTGTVSAIRVKKGDTVDTDAVLVEI” the value was -1.76. For “HMGAYPENSLLKERGQSAVYLIQENRKRLFFNAEAFLINGYNWKDIQVVDDLSKILTGKVIYAK” the value was -2.83; for “HMGDAATVFRDHYNINSAAQAQAALDRKEALWEQPNPWRDSDNREVFDWAAQTVKDRFDSGKYKPK”, 0.626; for “HMGDDVRKNILDVLSKFERVDITDLDSLELVRFYLEIEDIFDIEIKENDFYRLKSVDSIVDYIRNKSFF”, -1.31. Regarding “HMGDIQFMEYRINHSSGWIGKNISDFAAVSKNLVILIKRGQDVVIPRGPTAIMEDDVLVLHA”, the “soluble fraction (log2)” value was -1.88. “HMGDITALMPGKVIQIIVKEGQEIKVGDPLIVIESMKMENTISSEVNGTIKSINIQIDDNVQFDQVLFTV”: the “soluble fraction (log2)” value is -2.54. For “HMGDITIPDLQGMSFDQAREKLKALGLSIGKISYTSDTSKDDGVVISQGLQAGGKASKGATVDITINET”, the “soluble fraction (log2)” value was determined as 0.332.

For “HMGDLEEAVKDFSEAIRLNDSWAEAYANRAVVYAEQGDAAQSDQDAEKARLLGVDQNRLNEMLNAVNS”, the “soluble fraction (log2)” value came to 0.294. The figure for “HMGDLKALMPGKVTQVLVSGGQKVKVGEPVLLMESMKMEQTIVATKDGDISEILVSEGDTVEVGKIMIKI” is -0.00398; for “HMGDLTVPDLSGLTVDQAKQRLKDMGLVLGKITTQEDSSKPDGVIISQSPSADGKINKGQLVDVVVNKLS” it is 0.034; for “HMGDTHKVPGVKGVNVEQAMDMLSRLDLKAVVIDSVYVKDKKLGTVIEQNPVEGSVVKPGRPIYLVVNSRS” it is 0.352. For “HMGDTISVPAVRTLAYNKAMDILNAEGLKGIVADSVYDNHTAPGTVIEQNPKAGTIVKEGREVFLTIHA” the value was 0.117; for “HMGDWITGTVTRIADNGWGTFQPENAHNTVSIPPKMVADNQLKEADSIKIIAEPSPDGTKTFIKAISRE”, 0.113; for “HMGEDSEPVQVPDVTGQPLWEARRTLSSMGLKVLDDGGSGSVTAQMPSAGATLRNGGQMMLYTYDEALPE”, 0.126. As to “HMGEEIRTWTDAQGRKIEARMSMLDGDQVLLELKDGRKIPYPLAKLSADDAHYARHFASASASD”, the “soluble fraction (log2)” value was -0.0336. For “HMGEFVQLKNRTGSVIEAKILNYQNGKVKLQRKDGVIFVVPISIFDRMSSSIIENKAKEMDSF” the value was -0.263; for “HMGEIHAQIPGLVSHLFVKEGNTVQVEQKLFILEAMKMENEIDSPIQGTVKRIHIATGSKVEKGDLIMEIS”, -1.47; for “HMGEKFTFGQIAKAKAYAKTYANDMTSAVKNIEAIATGLSKHPEVADTLKKANENQELNRITKLAG”, -0.0289.

With “HMGEKPTEITLSNAISVQELAEKLYVSETDIIRTLFLDGIIVNINQVLDLETAVKVGDQLGVTITIVE”, the “soluble fraction (log2)” value was -1.33. On to “HMGEKTVPNVIGQKLATAKQLLEKEGLTVGSTSYNKNQADKDTVLSTDPAPGSHLSEGAKVNLTLSSGA”, for which the “soluble fraction (log2)” value was found to be 0.0786. “HMGEKVIAVSGGFDPIHVGHLRMMQDAAQHGRLVVIVNSDEWLLKKKGYVFMPWEERAELIGAYDFVDE”: the “soluble fraction (log2)” value is -0.964. The figure for “HMGELDPKIIAQINTFLQGITKLIEHPGNKDAKKTALGALHKLTFDQNITANFGKQLGQLDQVIQSSEET” is 0.0337; for “HMGELGPGSRGQAVRALQERLMALGFPLARFGADGIFGRETTGALRAFQHVAGLSPTGLGDHETLKWLGII” it is -1.33.

Turning to “HMGELTNALATLSERERDVARLVAQGLDNRQIAAQLFLSEGTVRNRISDILDKLALTNRTQLAIAWLHAE”, the “soluble fraction (log2)” value was -1.4.

On to “HMGEPTLTIRVVSYNPQSGEMVVVARDPLSGRYALATLNVRTGAGQMIGPQGELLPIENFALGS”, for which the “soluble fraction (log2)” value is -1.65.

Turning to “HMGEQVAVPDVTKKSVREVNNILTSAGLRLQIEGSGISVRQDPPADTMVAPDTVVTVSFEPP”, the “soluble fraction (log2)” value was 0.118. Turning to “HMGEQVFSRKDLAINGNDLKAVFGWPPGPKYREALDQLFHWVLEDPARNRRETLLAYLHSLYD”, the “soluble fraction (log2)” value is -0.136. The figure for “HMGESEKTLELVSQKDALVDEAFFFVRFQALLESNKTKGAQDLLDQSNHLSAAKLLQANAYLDIV” is 0.44; for “HMGESFEELAREISDDTGSKTEGGETGLFPRGVMAPQFEEAAFLLKVGDISEPIRTKFGYHIIKLKEIKP” it is -0.0117. For “HMGESVVVPDLRGKTLEEARAILKKVDLDYEINDSTYSKTAVPGTIRDIVPAPGSHVKAGRILFVSING” the value was -0.553; for “HMGETISVPAVRSLAYDRAVDMLTAEGLKGIVADSVYDNRTQPGTVIEQNPKAGTIVKEGREVYLTINA”, 0.275. As for “HMGFAPEAAREEVAQLIGQRGRAVTVLRPSGQVEIAGRRFEATVEVGAVDAGDTIVVRGQTAFALLVEKAD”, the “soluble fraction (log2)” value was -0.292.

As for “HMGFKLQRYTTFVVERLKKYQDTPAAQMHDLLKEHYPDFPAVSPKTVYNYVMKIRQEHGLPAV”, the “soluble fraction (log2)” value was -4.26. The figure for “HMGFSERLAQAMSHAGYTQGGLAKAVGMAQSSVNKLLNNANSSRKTVEIASVLGVRPEWLSTGEGDML” is -0.092; for “HMGFSKGKRDLIRMIKLAIRELADDNGRAQIEDVITRLVQEGHSRDEIRLQIDMFLRQGEAMEPKQGIIKL” it is -1.08; for “HMGFSLEQFGTDPDLKKIVENAFERIITASEGRIFKSDFSSNNSALPLEIFSFLIAVILLKLSGMN” it is -0.157. For “HMGFVATRSRKFLPFSEARAITRGLGFSNQKDYKEWIKGNGNELLLPFNPWRTYGDSGWKGWKDFLGTDKA” the value was -1.39; for “HMGFYDLFINLADKVGSLADVTQILAEARINLVNVHILEIREEIDGIAQLTFSSEKDRQKALELLKTKYK”, -1.87; for “HMGGDFVEHLKDLASEAPVIRLVNTIIGRVIDLRASDIHLEPFDDGLHVRYRVDGVIHPGELVPPRLS”, 0.0444. For “HMGGEGQIEIREREGIPAEAWVDGVMRGQTPLRVEHVSIGTRRVELRAEGRPPVAADVLVRPTVTALVELS” the value was 0.263; for “HMGGEHPIPEDWAVNEANYEHGAKFYGYTRAHVDAEAQAFRDQYAANGKKYVDWDAHFRTFMRWQNERRYG”, -0.0635; for “HMGGEPVSARVPDTLHGARLDATAAALFPDFSRSRLAEWIKAGRLRRNDQPAKPRDKVAVDDHLLLIPEY”, 0.0937. Regarding “HMGGFSVTAEAFDGTPEVGKTVGFTAGSTKIKVEDTKGDATFGTILEKETVGFGEGKYTYFYIGL”, the “soluble fraction (log2)” value is -0.428. Turning to “HMGGKAITGGEGEIIIRADKAETVAIYGIDGRLVHRVSTEAGDTKRVSVPAGIYIVKGAKVVV”, the “soluble fraction (log2)” value turned out to be 0.179. For “HMGGKTAVVTGSLVNVRKGPGTGNALVGQVARGDELPVLGQDGDWYQIKLANGSNGWVAGWLVSLKDAVP” the value was 0.334; for “HMGGLIDQSIQEIIDKYSVPGKKIQKAQRLKIVAEMHTKGIFKMRGGVQQAAQALGVTRYTVYNDLEVMN”, -3.08.

On to “HMGGLLSVIQKKAINNVKDRYSENAIKSMTKVQLHDLIKAETSRLLDPANAKETPEYQAFLEE”, for which the “soluble fraction (log2)” value is -0.0634. For “HMGGLSAEQKNGIQSVLKNFDPKNLTSADAKSITSEFKKLGVQPGKDLETTMAASGFDAKEVGRLAF” the value was 0.106.
